Assay [1] has as its target T1, recombinant human proprotein convertase subtilisin/kexin 9 (hPCSK9), his-tagged (human, UniProt Q8NBP7 153-692). Nature of the assay: SPR.
For assay [2], the target named is T1, recombinant human proprotein convertase …. As to the kind of experiment: SPR. This is another data set of the same source.

T1 sequence (Q8NBP7 153-692): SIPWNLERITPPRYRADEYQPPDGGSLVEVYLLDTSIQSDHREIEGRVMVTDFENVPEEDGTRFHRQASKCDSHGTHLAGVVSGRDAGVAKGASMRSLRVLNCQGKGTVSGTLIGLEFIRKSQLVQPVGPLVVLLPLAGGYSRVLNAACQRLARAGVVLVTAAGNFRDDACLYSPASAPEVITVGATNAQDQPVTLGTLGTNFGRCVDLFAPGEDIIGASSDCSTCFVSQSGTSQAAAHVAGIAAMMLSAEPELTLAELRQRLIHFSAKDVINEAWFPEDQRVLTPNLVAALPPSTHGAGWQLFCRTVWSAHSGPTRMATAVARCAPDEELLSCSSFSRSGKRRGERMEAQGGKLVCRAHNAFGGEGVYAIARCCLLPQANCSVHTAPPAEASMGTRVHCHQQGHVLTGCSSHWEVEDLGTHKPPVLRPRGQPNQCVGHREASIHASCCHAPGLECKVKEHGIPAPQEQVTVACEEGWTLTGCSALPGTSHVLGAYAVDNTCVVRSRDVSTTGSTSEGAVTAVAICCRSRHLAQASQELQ

B1: VHH-B11 (monovalent camelid nanobody against hPCSK9) (VHH)
VHH: QVQLQESGGGSVQAGGSLRLSCTVSGYTYSSNCMGWFRQAPGKEHEGVASIYIGGGSTYYADSVKGRFTISQDNAKNTVYLQMNSLKPEDTAMYYCAVGCQGLVDFGYWDQGTQVTVSS
As to B1, the koff in assay [1] is 0.000174 s⁻¹. Moreover, in assay [2], the Kd is around 5.01 nM.

B2: Llama VHH-human IgG4 hinge linker-IgG4 Fc chimeric HcAb (VHH-B11-Fc) (Fc fusion)
chain: QVQLQESGGGSVQAGGSLRLSCTVSGYTYSSNCMGWFRQAPGKEHEGVASIYIGGGSTYYADSVKGRFTISQDNAKNTVYLQMNSLKPEDTAMYYCAVGCQGLVDFGYWDQGTQVTVSS
In the case of B2, the koff in assay [1] is 0.00123 s⁻¹. For the same molecule, the dissociation constant (Kd) in assay [2] came out at 0.689 nM.

The values above are taken from paper PMC9288512 (2022).
